Assay [1] addresses T1, monkey TIM-3 on CHOK1 stable cell line (CHOK1-cTIM-3) (monkey).
T1 chain: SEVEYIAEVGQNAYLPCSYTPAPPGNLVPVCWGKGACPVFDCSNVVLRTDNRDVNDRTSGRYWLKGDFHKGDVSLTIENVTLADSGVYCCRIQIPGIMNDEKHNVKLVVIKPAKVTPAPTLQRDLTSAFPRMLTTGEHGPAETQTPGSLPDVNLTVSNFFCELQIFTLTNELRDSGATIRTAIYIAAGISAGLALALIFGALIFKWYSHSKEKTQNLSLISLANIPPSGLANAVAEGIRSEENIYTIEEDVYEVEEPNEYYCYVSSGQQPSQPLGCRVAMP
As to the kind of experiment: FACS, CHOK1-cTIM-3 cells, 0 nM antibody. (In general: Flow cytometry measures light scatter and fluorescence of single cells or particles in a stream.)

Assay [2] concerns the target T1, monkey TIM-3 on CHOK1 stable cell line …. As to the kind of experiment: FACS, CHOK1-cTIM-3 cells, 8 nM antibody.
Assay [3] has the same target. As to the kind of experiment: FACS, CHOK1-cTIM-3 cells, 40 nM antibody.
The target of assay [4] is T2, monkey TIM-3 extracellular domain protein with hFc tag (cTIM-3-hFc) (monkey).
T2 construct: not shown: human IgG Fc fragment (hFc) of the pCpC vector
T2 chain: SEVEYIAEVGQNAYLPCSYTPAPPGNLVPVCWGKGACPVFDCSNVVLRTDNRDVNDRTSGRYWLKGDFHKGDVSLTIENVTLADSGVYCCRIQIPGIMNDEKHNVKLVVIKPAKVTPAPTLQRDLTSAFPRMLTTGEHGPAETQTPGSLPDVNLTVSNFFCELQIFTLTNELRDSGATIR
The assay can be described thus: ELISA, coated monkey TIM-3 ECD protein, 0 nM antibody. A general note: In an ELISA, binding on a coated surface is turned into a signal by an enzyme label.

The target in assay [5] is T3, human TIM-3 extracellular domain protein with hFc tag (hTIM-3-hFc) (human, UniProt Q8TDQ0 22-200).
T3 construct: not shown: human IgG Fc fragment (hFc) of the pCpC vector
T3 sequence: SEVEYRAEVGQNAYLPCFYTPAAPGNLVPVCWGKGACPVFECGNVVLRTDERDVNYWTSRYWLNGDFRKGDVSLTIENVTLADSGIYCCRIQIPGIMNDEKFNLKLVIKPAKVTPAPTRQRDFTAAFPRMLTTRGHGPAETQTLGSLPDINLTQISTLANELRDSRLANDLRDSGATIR
The assay can be described thus: ELISA, coated human TIM-3 ECD protein, 6.6667 nM antibody.

In assay [6] the target is T2, monkey TIM-3 extracellular domain …. The assay can be described thus: ELISA, coated monkey TIM-3 ECD protein, 0.0067 nM antibody.
For assay [7] the target is unchanged. The assay can be described thus: ELISA, coated monkey TIM-3 ECD protein, 66.667 nM antibody.

Experimental findings from patent US20220033501A1 (SHANGHAI PHARMAEXPLORER, published 2022) are described below.

B1: 7A4F10 fully human TIM-3 antibody (human IgG4, kappa) (antibody, V domains shown)
VH: EVQLLESGGGLVQPGGSLRLSCAASGFTFRTHLISWVRQAPGKGLEWVAAITGSGGSTYYADSVKGRFIISRDNSKNTLFLQMNSLRAEDTAVYYCAKDGGSGSYDDFWGQGTLVTVSS
VL: ETVLTQSPVTLSLSPGERATLSCRASQSVGSYLAWYQQKPGQAPRLLIYDASNRATGIPARFSGSGSGTDFTLTISSLEPEDFAVYYCQQRSNWPPTFGQGTKVEIK
Take B1: the Mean fluorescence intensity was found to be 2.8 in assay [1], 325 in assay [2] and 336 in assay [3]. Also, the OD450 was 0.13 in assay [4], 3.01 in assay [5], 0.18 in assay [6] and 3.26 in assay [7].

B2: 18D2H2 fully human TIM-3 antibody (human IgG4, kappa) (antibody, V domains shown)
VH: EVQLVESGGDLVQPGGSLRLSCAASGFTFSTYWMTWVRQAPGRGLEWVANIKQDGSAKYYVDSVKGRFTLSRDDAKNSLYLQMNSLRAEDTAVYYCARGSNWFDYWGQGTLVTVSS
VL: ETVMTQSPATLSVSPGERATLSCRANQNVYSNLAWYQQKPGQAPRLLIYDASTRATGFPARFSGSGSGTEFTLTISSLQSEDFAVYYCQQYNNWPLTFGGGTKVEIK
Take B2: the values for the Mean fluorescence intensity in assay [1], in assay [2] and in assay [3] were 2.8, 475 and 462, respectively. Further, the OD450 is 0.13 in assay [4], 2.61 in assay [5], 0.33 in assay [6] and 3.27 in assay [7].

B3: 39E5H1 fully human TIM-3 antibody (human IgG4, kappa) (antibody, V domains shown)
VH: EVQLVESGGGLVQPGGSLRLSCAASGFTFSSYWMSWVRQAPGKGLEWVANIKRGGSERYYVDSVKGRFTISGDNAKNSVYLQMNSLRAEDTAVYYCARGSNWFDPWGQGTLVTVSS
VL: ETVMTQSPAILSVSPGERATLSCRASQSVYSNLAWYQQKLGQAPRLLIYDASTRATGIPARFSGSGSGTEFTLTISSLQSEDFAVYYCQQYNNWPITFGQGTRLEIK
As to B3, the Mean fluorescence intensity in assay [1] is 3; in assay [2] it was 349; in assay [3], 337. Besides, the OD450 was 0.16 in assay [4], 2.95 in assay [5], 0.3 in assay [6] and 3.38 in assay [7].

B4: 34B6D8 fully human TIM-3 antibody (human IgG4, kappa) (antibody, V domains shown)
VH: EVQLVESGGGLVQPGGSLRLSCAASGFTFSTYWMTWVRQAPGKRLEWVANIKQGGGDKYYVDSVKGRFTISTDNAKNSLYLQMNSLRAEDTAVYYCARGSNWFDPWGQGTLVTVSS
VL: EIVMTQSPATLSMSPGERATLSCRASQSVYDNLAWYQQKPGQAPRLLIYGASTRATGIPARFSGSGSGTEFTLTISSLQSEDFALYYCQQYTHWPITFGQGTRLEIK
Consider B4, for which the Mean fluorescence intensity was 2.9 in assay [1], 340 in assay [2] and 336 in assay [3]. The OD450 in assay [4] was 0.17; in assay [5], 2.99; in assay [6], 0.37; in assay [7], 3.39.

B5: 215A8F2 fully human TIM-3 antibody (human IgG4, kappa) (antibody, V domains shown)
VH: QVQLQQWGAGLLKPSETLSLTCTVYGGSFSGYYWNWIRQPPGKGLEWLGEINHSGSTNYNPSLKRRVTISVDTSKNQFSLKLSSVTAADTAVYYCARVYYYGPFDFWGQGTLVTVSS
VL: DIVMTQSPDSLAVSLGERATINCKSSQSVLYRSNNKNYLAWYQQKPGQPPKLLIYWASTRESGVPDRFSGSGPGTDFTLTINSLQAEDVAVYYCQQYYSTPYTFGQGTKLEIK
For B5, the Mean fluorescence intensity in assay [1] was found to be 2.8; in assay [2] it was 362; in assay [3], 366. The OD450 in assay [4] was determined as 0.13; in assay [5], 2.86; in assay [6] it was 0.33; in assay [7], 3.24.
